Reference: the supplement of paper PMC10567573

B1: WEE1 (parent)
chain: FISRTSIPNAASEEGDEDDWASNK

Variants of: B1
Experiment: protein stability index of a GFP-peptide fusion (GPS, HEK-293T) (PSI 1-6); higher = more stable
Conditions: c terminus: a fixed tail appended
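Further: lentivirally expressed fusions sorted by FACS into six bins by GFP to DsRed ratio, PSI derived from sequencing read proportions per bin multiplied by bin number.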

Q: Which protein stability index does the source give for K24V here?
A: Its protein stability index is 3.58.

Q: For K24R, which protein stability index is on record?
A: Its protein stability index is 3.08.

Q: Which protein stability index does the source give for K24T here?
A: Its protein stability index is 4.12.

Q: For K24Y, which protein stability index is on record?
A: Its protein stability index is 3.94.

Q: Which protein stability index does the source give for K24W here?
A: The protein stability index was 2.94.

Q: With K24S as the variant, how does the protein stability index read?
A: Its protein stability index is 4.53.
